In US20190322724A1:
pKi: −log10 of the molar value.

Biological target: active 62 kDa MMP-2 (UniProt P08253)
Experiment: fluorometric MMP-2 activity assay, competitive inhibition fit; TIMP-2 0-2.5 nM, substrate 0.83-6.66 µM

Chain of active 62 kDa MMP-2 (P08253 110-660 limits assumed): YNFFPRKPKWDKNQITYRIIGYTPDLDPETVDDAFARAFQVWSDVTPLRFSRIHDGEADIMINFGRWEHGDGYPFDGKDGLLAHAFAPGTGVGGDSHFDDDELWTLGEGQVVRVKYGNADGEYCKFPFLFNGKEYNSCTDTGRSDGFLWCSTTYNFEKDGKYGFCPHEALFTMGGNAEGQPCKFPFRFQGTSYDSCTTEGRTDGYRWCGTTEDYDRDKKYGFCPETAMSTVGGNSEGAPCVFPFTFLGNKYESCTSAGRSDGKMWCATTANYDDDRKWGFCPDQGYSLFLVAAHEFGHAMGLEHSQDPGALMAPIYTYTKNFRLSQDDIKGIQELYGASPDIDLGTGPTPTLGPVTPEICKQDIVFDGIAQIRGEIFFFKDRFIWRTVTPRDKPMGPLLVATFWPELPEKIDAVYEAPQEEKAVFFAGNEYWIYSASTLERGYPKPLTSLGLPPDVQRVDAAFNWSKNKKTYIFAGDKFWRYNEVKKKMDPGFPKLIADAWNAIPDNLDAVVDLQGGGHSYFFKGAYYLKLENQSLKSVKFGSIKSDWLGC
Chain of wild type human TIMP-2 with C-terminal His6 tag (WT TIMP-2-His6) (P16035 other isoform, or with tags, fused parts or gaps): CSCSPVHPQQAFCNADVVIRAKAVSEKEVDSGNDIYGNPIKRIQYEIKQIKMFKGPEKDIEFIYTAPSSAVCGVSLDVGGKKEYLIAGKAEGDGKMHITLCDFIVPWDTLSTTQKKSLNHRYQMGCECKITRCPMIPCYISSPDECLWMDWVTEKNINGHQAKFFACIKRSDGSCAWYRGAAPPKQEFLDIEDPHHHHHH

| pKi | Substance |
| --- | --- |
| 8.82 | wild type human TIMP-2 with C-terminal His6 tag (WT TIMP-2-His6) (from UniProt P16035 27-220) |
| 8.85 | TIMP-2 Y90F-His6 (from UniProt P16035 27-220) |
| 9.52 | TIMP-2 Y90E-His6 (from UniProt P16035 27-220) |
